Measurements published in IntAct's records for PubMed 18682223.

B1: DNA polymerase processivity factor (Human cytomegalovirus (strain AD169) (HHV-5)), P16790 (parent)
chain: MDRKTRLSEPPTLALRLKPYKTAIQQLRSVIRALKENTTVTFLPTPSLILQTVRSHCVSKITFNSSCLYITDKSFQPKTINNSTPLLGNFMYLTSSKDLTKFYVQDISDLSAKISMCAPDFNMEFSSACVHGQDIVRESENSAVHVDLDFGVVADLLKWIGPHTRVKRNVKKAPCPTGTVQILVHAGPPAIKFILTNGSELEFTANNRVSFHGVKNMRINVQLKNFYQTLLNCAVTKLPCTLRIVTEHDTLLYVASRNGLFAVENFLTEEPFQRGDPFDKNYVGNSGKSRGGGGGGGSLSSLANAGGLHDDGPGLDNDLMNEPMGLGGLGGGGGGGGKKHDRGGGGGSGTRKMSSGGGGGDHDHGLSSKEKYEQHKITSYLTSKGGSGGGGGGGGGGLDRNSGNYFNDAKEESDSEDSVTFEFVPNTKKQKCG
partner: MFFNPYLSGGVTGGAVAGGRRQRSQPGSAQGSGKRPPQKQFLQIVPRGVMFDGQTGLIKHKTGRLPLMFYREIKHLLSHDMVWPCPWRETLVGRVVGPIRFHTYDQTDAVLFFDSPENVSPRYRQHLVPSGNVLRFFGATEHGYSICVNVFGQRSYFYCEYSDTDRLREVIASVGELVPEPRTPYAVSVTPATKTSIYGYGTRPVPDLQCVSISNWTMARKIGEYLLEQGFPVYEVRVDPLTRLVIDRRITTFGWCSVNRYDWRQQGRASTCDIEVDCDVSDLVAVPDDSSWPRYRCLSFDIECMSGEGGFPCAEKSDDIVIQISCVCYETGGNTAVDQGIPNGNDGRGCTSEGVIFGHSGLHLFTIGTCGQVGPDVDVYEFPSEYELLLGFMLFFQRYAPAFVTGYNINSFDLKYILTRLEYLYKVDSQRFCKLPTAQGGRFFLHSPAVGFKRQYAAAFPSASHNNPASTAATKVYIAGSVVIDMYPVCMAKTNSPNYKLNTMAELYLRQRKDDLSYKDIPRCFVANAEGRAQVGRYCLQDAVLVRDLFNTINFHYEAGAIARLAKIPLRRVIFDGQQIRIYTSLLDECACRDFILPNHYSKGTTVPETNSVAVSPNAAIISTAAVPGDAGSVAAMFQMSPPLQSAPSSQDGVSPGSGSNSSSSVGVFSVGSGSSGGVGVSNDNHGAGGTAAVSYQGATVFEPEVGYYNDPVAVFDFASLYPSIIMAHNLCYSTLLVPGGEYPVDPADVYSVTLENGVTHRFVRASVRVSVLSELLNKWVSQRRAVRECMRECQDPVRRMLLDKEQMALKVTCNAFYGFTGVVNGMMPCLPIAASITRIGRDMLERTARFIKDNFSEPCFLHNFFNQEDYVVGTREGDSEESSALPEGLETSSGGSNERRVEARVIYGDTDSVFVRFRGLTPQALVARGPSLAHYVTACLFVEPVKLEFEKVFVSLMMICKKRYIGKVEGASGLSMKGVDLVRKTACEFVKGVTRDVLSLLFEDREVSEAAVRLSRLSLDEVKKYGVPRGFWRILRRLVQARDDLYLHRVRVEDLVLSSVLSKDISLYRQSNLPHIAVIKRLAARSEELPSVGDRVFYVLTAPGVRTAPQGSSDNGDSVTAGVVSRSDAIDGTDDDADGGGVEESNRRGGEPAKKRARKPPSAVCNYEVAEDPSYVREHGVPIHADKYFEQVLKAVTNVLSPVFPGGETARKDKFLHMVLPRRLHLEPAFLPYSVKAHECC

Variants of: B1
Conditions: with dpol_hcmva UL54, P08546

| Variant | effect of a mutation on the interaction |
| --- | --- |
| K35A;K158A;K224A;K237A | decreasing interaction |
| R165A;K167A;R168A;K171A;K172A | decreasing interaction |
